Laboratory results from US20180022800A1.

Molecular target: recombinant mouse OSM (mouse) (UniProt P53347)
Test: cell-based or functional assay

Chain of UniProt P53347 (P53347 24-206 limits assumed): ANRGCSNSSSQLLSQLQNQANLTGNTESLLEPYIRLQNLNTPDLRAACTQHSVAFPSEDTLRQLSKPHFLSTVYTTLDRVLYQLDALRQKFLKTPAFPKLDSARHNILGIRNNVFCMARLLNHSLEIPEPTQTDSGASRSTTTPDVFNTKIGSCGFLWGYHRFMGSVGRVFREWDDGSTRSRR

molar ratio of neutralizing agent required for 50% neutralization (SOCS3 expression in mouse colonic fibroblasts treated with 10 ng/ml recombinant mouse OSM, 2 hours) (molar ratio (neutralizing agent:OSM)): 1.7
Substance: O-RFP (recombinant murine OSM receptor fusion protein) (from UniProt O70458 24-426; Q00560 123-322) (Fc fusion)
